# Data: publication PMC10613289, “A circular RNA activated by TGFβ promotes tumor metastasis through enhancing IGF2BP3-mediated PDPN mRNA stability”
# How the values were obtained:
# [1] = biological target: T1, IGF2BP3 (recombinant GST fusion) (UniProt O00425 1-579); assay: competition; displaces biotin-circITGB6 (1 uM), protein 1 uM; EMSA: 10 mM HEPES pH 7.3, 20 mM KCl, 1 mM MgCl2, 1 mM DTT; competition: 150 mM NaCl, 20 mM Tris-HCl pH 7.5, 1.5 mM MgCl2, 1 mM DTT, 10% glycerol, 4 °C; pull-down at 4 °C, wash 20 mM Tris-HCl pH 7.5, 1 mM EDTA, 450 mM NaCl; details: tags: GST (pGEX-6P-1)
# [2] = biological target: T1, IGF2BP3 (recombinant GST fusion); assay: competition; against biotin-circITGB6 (1 uM), protein 1 uM; EMSA: 10 mM HEPES pH 7.3, 20 mM KCl, 1 mM MgCl2, 1 mM DTT; competition: 150 mM NaCl, 20 mM Tris-HCl pH 7.5, 1.5 mM MgCl2, 1 mM DTT, 10% glycerol, 4 °C; pull-down at 4 °C, wash 20 mM Tris-HCl pH 7.5, 1 mM EDTA, 450 mM NaCl; details: tags: GST (pGEX-6P-1)
# [3] = biological target: T1, IGF2BP3 (recombinant GST fusion); assay: pull-down; EMSA: 10 mM HEPES pH 7.3, 20 mM KCl, 1 mM MgCl2, 1 mM DTT; competition: 150 mM NaCl, 20 mM Tris-HCl pH 7.5, 1.5 mM MgCl2, 1 mM DTT, 10% glycerol, 4 °C; pull-down at 4 °C, wash 20 mM Tris-HCl pH 7.5, 1 mM EDTA, 450 mM NaCl; details: protein: recombinant; tags: GST (pGEX-6P-1); label: 3' biotin
# T1 sequence (O00425 whole entry, the tested form may be a part): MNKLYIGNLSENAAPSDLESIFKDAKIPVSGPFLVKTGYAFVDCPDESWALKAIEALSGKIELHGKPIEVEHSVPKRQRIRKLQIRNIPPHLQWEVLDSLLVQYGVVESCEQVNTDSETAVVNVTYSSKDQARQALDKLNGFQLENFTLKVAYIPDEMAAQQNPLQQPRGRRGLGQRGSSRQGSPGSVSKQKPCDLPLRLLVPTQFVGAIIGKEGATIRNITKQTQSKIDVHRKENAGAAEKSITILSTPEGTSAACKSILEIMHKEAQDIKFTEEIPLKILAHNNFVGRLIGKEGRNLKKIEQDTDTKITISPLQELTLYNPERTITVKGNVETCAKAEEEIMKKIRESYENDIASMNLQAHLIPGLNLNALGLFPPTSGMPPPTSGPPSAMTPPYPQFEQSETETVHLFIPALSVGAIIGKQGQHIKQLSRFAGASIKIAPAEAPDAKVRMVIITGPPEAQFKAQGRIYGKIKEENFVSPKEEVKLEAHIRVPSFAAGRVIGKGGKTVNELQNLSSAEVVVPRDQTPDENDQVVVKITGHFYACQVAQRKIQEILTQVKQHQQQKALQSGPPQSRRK
binder,measurement,setting,value
"ACUCUAAACGGAGCUGCAUUGAGUGCCACC (ssRNA) [M1 competitor, unlabeled]",binding result,[1],binds
"ACUAGCUGGUGCGACCAUCAGUGAAGAAGA (ssRNA) [M2 competitor, unlabeled]",binding result,[2],no binding
ACUCUAAACGGAGCUGCAUUGAGUGCCACC (ssRNA) [M1 (M1-WT) probe],binding result,[3],binds
